Data from patent US20090181027A1 (published 2009).
Changes are numbered by the printed parent chain. Each block holds one molecule with its values, some of them ahead of it.

What was measured:
[1] = target: IL-12 (mouse; target of the rat anti-mouse mAbs C17.8 and C18.2) (mouse) (UniProt P43432); assay: cell-based or functional assay
[2] = target: T1, human p40 single mutant M23T (human, UniProt P29460 23-328); assay: capture assay, relative binding affinity to p40 muteins (FIG. 4)
T1 construct: Transiently expressed in HEK293E cells; supernatant used
T1 sequence: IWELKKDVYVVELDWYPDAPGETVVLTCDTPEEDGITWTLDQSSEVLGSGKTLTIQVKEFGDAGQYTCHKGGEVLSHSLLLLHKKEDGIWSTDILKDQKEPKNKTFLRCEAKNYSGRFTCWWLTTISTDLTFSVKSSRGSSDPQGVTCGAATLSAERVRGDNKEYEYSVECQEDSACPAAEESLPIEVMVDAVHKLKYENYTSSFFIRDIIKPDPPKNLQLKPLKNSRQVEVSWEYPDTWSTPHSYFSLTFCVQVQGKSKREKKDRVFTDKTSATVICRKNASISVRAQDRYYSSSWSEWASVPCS
Description: (§1) Seven human p40 single mutants, M23T, L40T, S43R, E45A, E45R, E59R, and D62R, and two double mutants, S43R/E45A and S43R/E45R, are used in the studies. The wide-type human p40, WT hu-p40, was used as the control. The p40 mutants were transiently expressed in HEK293E cells. The supernatants were used for binding assays.
(§2) In brief, MSD high bind plates (Meso Scale Discovery, MD) were coated with 5 μl of a capture monoclonal antibody (5 μg/ml) at room temperature for 1 hour. […] One-hundred and fifty (150) μl of 5% MSD Blocker A buffer was added to each well and incubated for 1 hr at room temperature. Plates were washed three times with 0.1 M HEPES buffer (pH 7.4). These protein-charged ELISA plates were incubated with 25 μl of different transiently expressed p40 mutant supernatants (1:10 dilution with 0.1 M HEPES buffer, pH 7.4) for 1 hr at room temperature. The plates were washed three times with 0.1 M HEPES buffer (pH 7.4). Twenty-five (25) μl of different concentrations of MSD Sulfo-TAG labeled p40 mAb, ranging from 0 to 20 μg/ml, were dispensed to micro-wells. After incubation for 2 hrs shaking at room temperature, plates were washed 3 times with 0.1 M HEPES buffer (pH 7.4). One hundred and fifty (150) μl of diluted MSD Read Buffer T was dispensed into each well and the plates were analyzed with a SECTOR imager (MSD).

[3] = target: T2, human p40 single mutant S43R (human, UniProt P29460 23-328); assay: as above
T2 construct: Transiently expressed in HEK293E cells; supernatant used
T2 sequence: T1 sequence with T23M, S43R
Description: as §1, §2

[4] = target: T3, human p40 single mutant E45A (human, UniProt P29460 23-328); assay: as above
T3 construct: Transiently expressed in HEK293E cells; supernatant used
T3 sequence: T1 sequence with T23M, E45A
Description: as §1, §2

[5] = target: T4, human p40 single mutant L40T (human, UniProt P29460 23-328); assay: as above
T4 construct: Transiently expressed in HEK293E cells; supernatant used
T4 sequence: T1 sequence with T23M, L40T
Description: as §1, §2

IL-12 (mouse; target of the rat anti-mouse mAbs C17.8 and C18.2) (mouse), sequence (P43432 23-335 limits assumed, chain 1 of 2): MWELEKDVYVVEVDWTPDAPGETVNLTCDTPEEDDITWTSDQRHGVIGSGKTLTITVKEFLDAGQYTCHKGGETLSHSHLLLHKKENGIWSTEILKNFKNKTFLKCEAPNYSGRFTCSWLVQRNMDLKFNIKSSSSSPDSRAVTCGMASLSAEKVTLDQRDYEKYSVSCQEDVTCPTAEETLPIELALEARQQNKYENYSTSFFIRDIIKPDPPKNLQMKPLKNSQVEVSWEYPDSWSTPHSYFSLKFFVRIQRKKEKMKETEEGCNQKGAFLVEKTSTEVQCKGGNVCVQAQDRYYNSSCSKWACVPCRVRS
IL-12 (mouse; target of the rat anti-mouse mAbs C17.8 and C18.2) (mouse), sequence (P43431 23-215 limits assumed, chain 2 of 2, further chain): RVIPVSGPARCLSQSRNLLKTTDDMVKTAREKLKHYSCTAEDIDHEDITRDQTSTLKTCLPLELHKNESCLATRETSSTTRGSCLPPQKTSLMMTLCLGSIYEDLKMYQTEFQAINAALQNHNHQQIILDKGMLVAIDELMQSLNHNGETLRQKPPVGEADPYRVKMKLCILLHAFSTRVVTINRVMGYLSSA

in vitro neutralization of IL-12, relative to the anti-p35 mAb (C18.2) (times (versus anti-p35 mAb)) [1]: 5
Molecule: C17.8 (rat anti-mouse IL-12/IL-23p40, IgG2a) (antibody)

reduction of binding [2]: ~40% | reduction of binding [3]: ~40% | reduction of binding [4]: ~70% | reduction of binding [5]: ~40%
B1: IL-12/IL-23p40 mAb (fully human monoclonal antibody directed against human IL-12/23p40) (antibody, V domains shown)
VH: EVQLVQSGAEVKKPGESLKISCKGSGYSFTTYWLGWVRQMPGKGLDWIGIMSPVDSDIRYSPSFQGQVTMSVDKSITTAYLQWNSLKASDTAMYYCARRRPGQGYFDFWGQGTLVTVSS
VL: DIQMTQSPSSLSASVGDRVTITCRASQGISSWLAWYQQKPEKAPKSLIYAASSLQSGVPSRFSGSGSGTDFTLTISSLQPEDFATYYCQQYNIYPYTFGQGTKLEIKR
notes: Whole IgG made in a mammalian cell line and purified on protein A; also called IL-12/23p40 mAb; IL-12p40 antibody
